Measured values from article doi:10.1101/684480.

What was measured:
[1] = biological target: BCR-ABL with deleted IDR (human) (UniProt P11274); experiment: co-IP
BCR-ABL Y177F (human) [2] = biological target: BCR-ABL Y177F (human) (UniProt P11274); experiment: co-IP
[3] = biological target: BCR-ABL with deleted FABD domain (human) (UniProt P11274); experiment: co-IP
[4] = biological target: BCR-ABL with deleted DH-PH domains (human) (UniProt P11274); experiment: co-IP
BCR-ABL Y177F (human) [5] = biological target: BCR-ABL Y177F (human) (UniProt P11274); experiment: native gel or EMSA
[6] = biological target: kinase-dead BCR-ABL (K271H) (human) (UniProt P11274); experiment: native gel or EMSA
[7] = biological target: BCR-ABL with deleted PH domain (human) (UniProt P11274); experiment: co-IP
p190 BCR-ABL (human) = p190 BCR-ABL (human) (UniProt P11274); experiment: proximity ligation

Molecule: p85a-PI3K, transfected (from UniProt P27986 1-724) (natural protein)
- decrease of binding against BCR-ABL [1]: 70%
- decrease of binding against BCR-ABL (BCR-ABL Y177F (human) [2]): 50%
- decrease of binding against BCR-ABL [3]: 40%
- decrease of binding against BCR-ABL [4]: 80%

Molecule: GRB2 of NIH3T3 cells (from UniProt Q60631 1-217) (natural protein)
- percent of GRB2 associated (BCR-ABL Y177F (human) [5]): 30%
- percent of GRB2 associated [6]: 30%

B1: SHC1, endogenous (natural protein)
chain: MDLLPPKPKYNPLRNESLSSLEEGASGSTPPEELPSPSASSLGPILPPLPGDDSPTTLCSFFPRMSNLRLANPAGGRPGSKGEPGRAADDGEGIVGAAMPDSGPLPLLQDMNKLSGGGGRRTRVEGGQLGGEEWTRHGSFVNKPTRGWLHPNDKVMGPGVSYLVRYMGCVEVLQSMRALDFNTRTQVTREAISLVCEAVPGAKGATRRRKPCSRPLSSILGRSNLKFAGMPITLTVSTSSLNLMAADCKQIIANHHMQSISFASGGDPDTAEYVAYVAKDPVNQRACHILECPEGLAQDVISTIGQAFELRFKQYLRNPPKLVTPHDRMAGFDGSAWDEEEEEPPDHQYYNDFPGKEPPLGGVVDMRLREGAAPGAARPTAPNAQTPSHLGATLPVGQPVGGDPEVRKQMPPPPPCPGRELFDDPSYVNVQNLDKARQAVGGAGPPNPAINGSAPRDLFDMKPFEDALRVPPPPQSVSMAEQLRGEPWFHGKLSRREAEALLQLNGDFLVRESTTTPGQYVLTGLQSGQPKHLLLVDPEGVVRTKDHRFESVSHLISYHMDNHLPIISAGSELCLQQPVERKL
- decrease of the interaction against BCR-ABL [7]: 70%

B2: V5-tagged SHIP2 (enzyme)
chain: MASACGAPGPGGALGSQAPSWYHRDLSRAAAEELLARAGRDGSFLVRDSESVAGAFALCVLYQKHVHTYRILPDGEDFLAVQTSQGVPVRRFQTLGELIGLYAQPNQGLVCALLLPVEGEREPDPPDDRDASDGEDEKPPLPPRSGSTSISAPTGPSSPLPAPETPTAPAAESAPNGLSTVSHDYLKGSYGLDLEAVRGGASHLPHLTRTLATSCRRLHSEVDKVLSGLEILSKVFDQQSSPMVTRLLQQQNLPQTGEQELESLVLKLSVLKDFLSGIQKKALKALQDMSSTAPPAPQPSTRKAKTIPVQAFEVKLDVTLGDLTKIGKSQKFTLSVDVEGGRLVLLRRQRDSQEDWTTFTHDRIRQLIKSQRVQNKLGVVFEKEKDRTQRKDFIFVSARKREAFCQLLQLMKNKHSKQDEPDMISVFIGTWNMGSVPPPKNVTSWFTSKGLGKTLDEVTVTIPHDIYVFGTQENSVGDREWLDLLRGGLKELTDLDYRPIAMQSLWNIKVAVLVKPEHENRISHVSTSSVKTGIANTLGNKGAVGVSFMFNGTSFGFVNCHLTSGNEKTARRNQNYLDILRLLSLGDRQLNAFDISLRFTHLFWFGDLNYRLDMDIQEILNYISRKEFEPLLRVDQLNLEREKHKVFLRFSEEEISFPPTYRYERGSRDTYAWHKQKPTGVRTNVPSWCDRILWKSYPETHIICNSYGCTDDIVTSDHSPVFGTFEVGVTSQFISKKGLSKTSDQAYIEFESIEAIVKTASRTKFFIEFYSTCLEEYKKSFENDAQSSDNINFLKVQWSSRQLPTLKPILADIEYLQDQHLLLTVKSMDGYESYGECVVALKSMIGSTAQQFLTFLSHRGEETGNIRGSMKVRVPTERLGTRERLYEWISIDKDEAGAKSKAPSVSRGSQEPRSGSRKPAFTEASCPLSRLFEEPEKPPPTGRPPAPPRAAPREEPLTPRLKPEGAPEPEGVAAPPPKNSFNNPAYYVLEGVPHQLLPPEPPSPARAPVPSATKNKVAITVPAPQLGHHRHPRVGEGSSSDEESGGTLPPPDFPPPPLPDSAIFLPPSLDPLPGPVVRGRGGAEARGPPPPKAHPRPPLPPGPSPASTFLGEVASGDDRSCSVLQMAKTLSEVDYAPAGPARSALLPGPLELQPPRGLPSDYGRPLSFPPPRIRESIQEDLAEEAPCLQGGRASGLGEAGMSAWLRAIGLERYEEGLVHNGWDDLEFLSDITEEDLEEAGVQDPAHKRLLLDTLQLSK
- interaction preserved with nilotinib, against active BCR-ABL (p190 BCR-ABL (human)): > 50%
